Among the data in patent US7167802 are Vmax of the MK2 construct after activation by p38 (0.076 without p38) and Vmax of the MK2 construct after activation by p38 (no activity without p38) values, retold here.

For data set [1], the system named is MK2 41-364 (unphosphorylated, constitutively active).
For data set [2], the system named is MK2 41-400 (unphosphorylated).
Chain of MK2 41-400 (unphosphorylated) (chain, as listed by the source): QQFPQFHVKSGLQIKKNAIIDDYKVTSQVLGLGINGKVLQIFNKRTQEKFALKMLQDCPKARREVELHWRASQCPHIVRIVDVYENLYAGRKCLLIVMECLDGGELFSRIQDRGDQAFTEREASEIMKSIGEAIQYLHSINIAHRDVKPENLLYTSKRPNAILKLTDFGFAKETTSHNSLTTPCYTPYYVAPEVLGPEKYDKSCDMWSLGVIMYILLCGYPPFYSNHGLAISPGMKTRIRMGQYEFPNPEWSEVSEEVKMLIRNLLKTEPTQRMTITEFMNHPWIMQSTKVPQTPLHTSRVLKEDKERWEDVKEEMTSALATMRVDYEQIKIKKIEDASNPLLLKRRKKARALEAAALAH

Regarding Activated p38 MAP kinase, the Vmax of the MK2 construct after activation by p38 (0.076 without p38) in data set [1] worked out at 11 µmol/min/mg. Further, the Vmax of the MK2 construct after activation by p38 (no activity without p38) in data set [2] stood at 8.9 µmol/min/mg.
